From patent publication US20140044730A1 come the findings set out here.

The target of assay [1] is human PCSK9 with a C-terminal myc-myc-hexahistidine tag (human) (UniProt Q8NBP7). As to the kind of experiment: SPR (Biacore), 37 °C; antibody captured on anti-human Fc surface, hPCSK9-mmH injected (3.125-50 nM); association at pH 7.4, dissociation at pH 7.4.
Assay [2] shares this target. As to the kind of experiment: SPR 25C, purified mAb captured.
The target is the same in assay [3]. As to the kind of experiment: blocking ELISA, hPCSK9-mmH vs coated hLDLR EGFA-hFc. On the technique in general: In an ELISA, binding on a coated surface is turned into a signal by an enzyme label.
The target is the same in assay [4]. As to the kind of experiment: SPR 25C pH 6.0, purified mAb captured.
Assay [5] shares this target. As to the kind of experiment: SPR (Biacore), 37 °C; antibody captured on anti-human Fc surface, hPCSK9-mmH injected (3.125-50 nM); association at pH 7.4, dissociation at pH 5.75.
The target is the same in assay [6]. As to the kind of experiment: SPR (Biacore), 37 °C; antibody captured on anti-human Fc surface, hPCSK9-mmH injected (3.125-50 nM); association at pH 7.4, dissociation at pH 7.2.
Assay [7] has the same target. As to the kind of experiment: SPR (Biacore), 37 °C; antibody captured on anti-human Fc surface, hPCSK9-mmH injected (3.125-50 nM); association at pH 7.4, dissociation at pH 6.0. For orientation: Surface plasmon resonance follows binding to a sensor surface in real time, without labels.
The target in assay [8] is human PCSK9 with a C-terminal myc-myc hexahistidine tag and a D374Y mutation (human) (UniProt Q8NBP7). As to the kind of experiment: cell-based or functional assay.
Assay [9] deals with human PCSK9 with a C-terminal myc-myc-hexahistidine tag (human) (UniProt Q8NBP7). As to the kind of experiment: cell-based or functional assay.
For assay [10], the target named is recombinant cynomolgus monkey PCSK9 with a C-terminal myc-myc hexahistidine tag (cynomolgus monkey). As to the kind of experiment: cell-based or functional assay.
The target of assay [11] is human PCSK9 with a C-terminal myc-myc-hexahistidine tag (human) (UniProt Q8NBP7). As to the kind of experiment: blocking ELISA pH 5.75, 500 pM hPCSK9-mmH vs coated hLDLR EGFA-hFc.
Assay [12] shares this target. As to the kind of experiment: SPR 25C pH 7.4, purified mAb captured.
The target is the same in assay [13]. As to the kind of experiment: blocking ELISA pH 7.2, 500 pM hPCSK9-mmH vs coated hLDLR EGFA-hFc.

B1: Comparator 7 (antibody, from another filing, IgG2, V domains shown)
VH: QVQLVQSGAEVKKPGASVKVSCKASGYTLTSYGISWVRQAPGQGLEWMGWVSFYNGNTNYAQKLQGRGTMTTDPSTSTAYMELRSLRSDDTAVYYCARGYGMDVWGQGTTVTVSS
VL: QSALTQPASVSGSPGQSITISCTGTSSDVGGYNSVSWYQQHPGKAPKLMIYEVSNRPSGVSNRFSGSKSGNTASLTISGLQAEDEADYYCNSYTSTSMVFGGGTKLTVLQ
One may read the Kd as a measure of binding affinity in units of concentration. As usually defined, the koff is the first-order rate constant of dissociation. A word on the kon: it is a measure of how fast the partners come together. A word on the t½: it is the time in which the quantity being followed falls by half. What is called IC50 is the concentration that gives 50% inhibition. In turn, B1 gave a t½ (dissociative half-life) in [1] of 1.5 h. For the same molecule, in assay [2], the KD ratio pH 6.0/pH 7.4 came out at 0.28, the ka ratio pH 6.0/pH 7.4 is 1.65, the kd ratio pH 6.0/pH 7.4 was 0.47 and the t½ ratio pH 6.0/pH 7.4 worked out at 2.15. For the same molecule, the IC50 ratio (pH 5.75/pH 7.2) in assay [3] is 1.3. Further, in assay [4], the Kd came out at 0.205 nM, the off-rate constant (koff) was 2.84e-05 s⁻¹, the kon amounted to 138000 M⁻¹ s⁻¹ and the t½ came to 6.79 h. Also, the t½ (dissociative half-life) in assay [5] turned out to be 1.44 h. Also, the t½ (dissociative half-life) in assay [6] was determined as 1.47 h. For the same molecule, the t½ (dissociative half-life) in [7] amounted to 1.19 h. The IC50, LDL uptake in HepG2 cells, 2 nM hPCSK9-D374Y-mmH in [8] is 0.97 nM. In assay [9], this molecule yielded an IC50, LDL uptake in HepG2 cells, 50 nM hPCSK9-mmH of 8.9 nM. Besides, in [10], the IC50, LDL uptake in HepG2 cells, 50 nM MfPCSK9-mmH came to 10.4 nM. Besides, the IC50 in [11] amounted to 0.331 nM. For the same molecule, in assay [12], the dissociation constant Kd stood at 0.728 nM, the dissociation rate constant (koff) stood at 6.09e-05 s⁻¹, the kon stood at 83600 M⁻¹ s⁻¹ and the t½ stood at 3.16 h. In addition, in assay [13], the IC50 stood at 0.245 nM.
